The source of these data is publication doi:10.1101/2023.11.17.567387.

The target of this experiment is C. elegans DPF-3 (C. elegans). The experiment in a line: cryo-EM structure.

C. elegans DPF-3 (enzyme): the stoichiometry N (in general, a count of units in the complex or per binding partner) came to 2.
